# Laboratory results taken from patent US20080050380A1.
# Tests used:
# [1] = target: human TANGO 268 (glycoprotein VI, GPVI), full length (human) (UniProt Q9HCN6); assay: flow cytometry on washed human platelets
# [2] = target: baboon GPVI on baboon platelets (baboon); assay: flow cytometry on washed baboon platelets
# [3] = target: soluble human GPVI-Fc (the extracellular domain of GPVI fused to Fc) (human) (UniProt Q9HCN6); assay: SPR (BIAcore), GPVI-Fc coupled to the chip, bivalent model
# [4] = target: soluble human GPVI-Fc (the extracellular domain of GPVI fused to Fc) (human) (UniProt Q9HCN6); assay: ELISA, 5 nM GPVI-Fc with 10 µg/ml antibody on collagen-coated wells; collagen is the blocked partner
# [5] = target: soluble human GPVI-Fc (the extracellular domain of GPVI fused to Fc) (human) (UniProt Q9HCN6); assay: 125I-convulxin binding to GPVI-Fc captured on mAb 1P10.2, 10 µg/ml antibody; convulxin is the blocked partner
# collagen type I = assay: cell-based or functional assay
# Sequence of soluble human GPVI-Fc (the extracellular domain of GPVI fused to Fc) (human) (Q9HCN6 other isoform, or with tags, fused parts or gaps): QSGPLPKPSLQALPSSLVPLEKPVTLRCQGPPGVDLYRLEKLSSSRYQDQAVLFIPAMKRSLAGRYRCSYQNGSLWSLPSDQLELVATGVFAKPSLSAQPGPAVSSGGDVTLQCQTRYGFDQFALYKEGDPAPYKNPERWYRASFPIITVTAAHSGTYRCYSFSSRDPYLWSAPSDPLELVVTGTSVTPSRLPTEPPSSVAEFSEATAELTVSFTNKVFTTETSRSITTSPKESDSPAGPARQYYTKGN
# Sequence of human TANGO 268 (glycoprotein VI, GPVI), full length (human) (Q9HCN6 other isoform, or with tags, fused parts or gaps): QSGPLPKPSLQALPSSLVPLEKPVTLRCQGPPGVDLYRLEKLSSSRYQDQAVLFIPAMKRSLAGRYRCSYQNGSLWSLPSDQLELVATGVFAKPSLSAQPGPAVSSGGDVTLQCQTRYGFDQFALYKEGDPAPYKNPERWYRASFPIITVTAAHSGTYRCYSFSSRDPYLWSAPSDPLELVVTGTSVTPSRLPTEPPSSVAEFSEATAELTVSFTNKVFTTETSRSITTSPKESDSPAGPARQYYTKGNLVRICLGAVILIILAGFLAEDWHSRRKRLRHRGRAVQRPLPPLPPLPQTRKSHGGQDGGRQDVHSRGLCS
substance,measurement,setting,value
mouse monoclonal antibody produced by hybridoma cell line 9012.2,Human fluorescence intensity,[1],14
same,Human platelets % positive,[1],21%
same,Baboon fluorescence intensity,[2],18
same,Baboon platelets % positive,[2],33.8%
same,Kd,[3],18 nM
same,% of Inhibition of collagen binding of hrGPVI,[4],58%
same,% of Inhibition of convulxin binding of hrGPVI,[5],75%
recombinant human soluble GPVI:Fc fusion protein (rhusGPVI:Fc) (from UniProt Q9HCN6 21-269),"concentration of rhusGPVI:Fc needed to inhibit collagen-induced activation, against that needed for Cvx",collagen type I,10 fold
